# According to article PMC7195465, “Molecular mechanism of light-driven sodium pumping” (Nature Communications, 2020):
# Tests used:
# Assay in all cases: crystal structure; in meso (monoolein) crystals, 1.2 M sodium malonate pH 8.0, grown at 22 °C; pentameric form, space group C222_(1); data at 100 K and at room temperature
# [1] = biological target: KR2-D116N (Krokinobacter eikastus)
# [2] = biological target: KR2-H30A (Krokinobacter eikastus)
# [3] = biological target: the molecule itself
molecule,measurement,setting,value
KR2-D116N (natural protein),stoichiometry N,[1],5
KR2-H30A (natural protein),stoichiometry N,[2],5
"light-driven sodium-pumping rhodopsin KR2 from Krokinobacter eikastus (natural protein, retinal covalently bound to the lysine residue of helix G via the Schiff base, KR2, light-driven Na+-pumping rhodopsin of Krokinobacter eikastus; Pentamer in the crystals grown at pH 8.0; the construct is not described beyond 'KR2 expression plasmid'; also called KR2-WT; WT protein; source: E. coli SE1 (Staby Codon T7), purified (DDM solubilisation, Ni-NTA, SEC)) MTQELGNANFENFIGATEGFSEIAYQFTSHILTLGYAVMLAGLLYFILTIKNVDKKFQMSNILSAVVMVSAFLLLYAQAQNWTSSFTFNEEVGRYFLDPSGDLFNNGYRYLNWLIDVPMLLFQILFVVSLTTSKFSSVRNQFWFSGAMMIITGYIGQFYEVSNLTAFLVWGAISSAFFFHILWVMKKVINEGKEGISPAGQKILSNIWILFLISWTLYPGAYLMPYLTGVDGFLYSEDGVMARQLVYTIADVSSKVIYGVLLGNLAITLSKNKELVEANS",stoichiometry N,[3],5
